Laboratory results from paper PMC8410769, “A CDK-regulated chromatin segregase promoting chromosome replication” (Nature Communications, 2021).

Target: the molecule itself
Experiment: SEC; Superose 6 (3.2/300) in 150 mM KCl, 25 mM Tris-HCl pH 7.2, 5% glycerol, 0.05% NP-40, 1 mM EDTA, 4 mM MgCl2; purified Yta7 and mutants

B1: Yta7 ATP-binding mutant (K460A, Walker A), 3xFLAG-tagged (enzyme, S. cerevisiae, UniProt P40340 1-1379, looked up)
chain: MARNLRNRRGSDVEDASNAKVGYETQIKDENGIIHTTTRSLRKINYAEIEKVFDFLEDDQVMDKDETPVDVTSDEHHNNNQKGDDEDDDVDLVSPHENARTNEELTNERNLRKRKAHDPEEDDESFHEEDVDDDEEEEEADEFEDEYLDEDSKDNNRRRRAADRKFVVPDPDDDEEYDEDDEEGDRISHSASSKRLKRANSRRTRSSRHPETPPPVRRALRSRTRHSRTSNEENDDENDNSRNEALTLADEIRELQEDSPIREKRFLRERTKPVNYKLPPPLTASNAEEFIDKNNNALSFHNPSPARRGRGGWNASQNSGPTRRLFPTGGPFGGNDVTTIFGKNTNFYNQVPSAFSDNNNNKLILDSDSSDDEILPLGVTPKTKKENTQKKKKKKPEIADLDPLGVDMNVNFDDIGGLDNYIDQLKEMVALPLLYPELYQNFNITPPRGVLFHGPPGTGATLMARALAASCSSDERKITFFMRKGADILSKWVGEAERQLRLLFEEAKKHQPSIIFFDEIDGLAPVRSSKQEQIHASIVSTLLALMDGMDNRGQVIVIGATNRPDAVDPALRRPGRFDREFYFPLPDVKARFKILQIQTRKWSSPLSTNFIDKLAFLTKGYGGADLRSLCTEAALISIQRSFPQIYRSNDKLLVDPSKIKVKVSDFMLALKKIVPSSARSTGSSPQPLPELIKPLLADQLNNLKNKLDYMLNIKDTTFQRNTSLLQNFIDYEEYSGEEEEHDKYGGNEDTSSFRSYEFFESMAESQICKPRLLINGPKGNGQQYVGAAILNYLEEFNVQNLDLASLVSESSRTIEAAVVQSFMEAKKRQPSVVFIPNLDIWINTIPENVILVLSGLFRSLQSNEKILLLCLAENLDISEVKNGILSDFAFDKNIFQLHKPSKENITRYFSNLIELLKTKPSDIPMKKRRVKPLPELQKVTSNAAPTNFDENGEPLSEKVVLRRKLKSFQHQDMRLKNVLKIKLSGLMDLFKNRYKRFRKPPIDDAFLVHLFEPETSNDPNWQPAYIKDENMILEVSTGRKFFNMDLDIVEERLWNGYYSEPKQFLKDIELIYRDANTIGDRERVIKASEMFANAQMGIEEISTPDFIQECKATRQRDLERQELFLEDEEKRAAMELEAKEQSQENILQEPDLKDNKANEFGVAAGNQLQAQLQTTINTASIVNNSEVPQPIDTNLYKKEIPAAIPSAVDKEKAVIPEDSGANEEYTTELIQATCTSEITTDDDERARKEPKENEDSLQTQVTEENFSKIDANTNNINHVKEIQSVNKPNSLHETVEKRERSPIPKEVVEPEQGKKSDKELILTPEQIKKVSACLIEHCQNFTVSQLEDVHSSVAKIIWKSKSAWDKTGTVDEIIKFLSE
notes: Yta7, Saccharomyces cerevisiae; K460A mutant of the Walker A motif within the active AAA+ domain; also called ATPase mutant; source: S. cerevisiae (GAL1-10 promoter, G1-arrested, endogenous copy eliminated), purified (anti-FLAG M2, MonoQ, SEC); not shown: 3xFLAG, C-terminal, kept
In the case of B1, the “stoichiometry N” value is reported as 6.
